One assay deals with HLA-C*12:03. As to the kind of experiment: IEDB peptide-MHC binding, purified MHC/direct/fluorescence; filed as Kd, often an IC50 or EC50 that approximates it; ≥ and ≤ were set here for values at or beyond the usual limits of such assays. The following applies: source organism: Cryptosporidium parvum Iowa II.
The target of another assay is HLA-A*66:01. Kind of assay: IEDB peptide-MHC binding, purified MHC/competitive/fluorescence; filed as Kd, often an IC50 or EC50 that approximates it; ≥ and ≤ were set here for values at or beyond the usual limits of such assays. The following applies: source organism: Cryptosporidium parvum Iowa II.
A further assay concerns the target HLA-A*68:02. Described as above. The following applies: source organism: Cryptosporidium parvum Iowa II.
For another assay, the target named is HLA-B*44:02. Described as above. The note with it: source organism: Cryptosporidium parvum Iowa II.
Assay [1] concerns the target HLA-B*46:01. The description is as above. The note with it: source organism: Cryptosporidium parvum Iowa II.
The target in the next assay is HLA-B*14:02. The assay is described as above. The note with it: source organism: Cryptosporidium parvum Iowa II.
Another assay concerns the target HLA-B*07:02. Described as above. The following applies: source organism: Cryptosporidium parvum Iowa II.
The target of the next assay is HLA-A*24:03. The description is as above. The following applies: source organism: Cryptosporidium parvum Iowa II.
Another assay has as its target HLA-B*53:01. The assay is described as above. The note with it: source organism: Cryptosporidium parvum Iowa II.
For a further assay, the target named is HLA-A*30:01. Described as above. The note with it: source organism: Cryptosporidium parvum Iowa II.
The target in assay [2] is HLA-B*51:01. Described as above. The note with it: source organism: Cryptosporidium parvum Iowa II.
A further assay deals with HLA-B*08:01. Described as above. The note with it: source organism: Cryptosporidium parvum Iowa II.
Assay [3] deals with HLA-B*18:01. The assay is described as above. The note with it: source organism: Cryptosporidium parvum Iowa II.
A further assay deals with HLA-B*39:01. Described as above. The following applies: source organism: Cryptosporidium parvum Iowa II.
A further assay concerns the target HLA-A*23:01. Described as above. The following applies: source organism: Cryptosporidium parvum Iowa II.
Assay [4] concerns the target HLA-B*27:05. The description is as above. The following applies: source organism: Cryptosporidium parvum Iowa II.
Assay [5] deals with HLA-A*03:01. The description is as above. The following applies: source organism: Cryptosporidium parvum Iowa II.
The target in a further assay is HLA-B*27:03. The description is as above. The note with it: source organism: Cryptosporidium parvum Iowa II.
The next assay addresses HLA-A*30:02. The assay is described as above. The following applies: source organism: Cryptosporidium parvum Iowa II.
A further assay has as its target HLA-A*29:02. The description is as above. The following applies: source organism: Cryptosporidium parvum Iowa II.
The target of a further assay is HLA-B*15:01. The description is as above.
The target in assay [6] is HLA-A*11:01. The assay is described as above. The following applies: source organism: Cryptosporidium parvum Iowa II.
For assay [7], the target named is HLA-A*01:01. The description is as above. The note with it: source organism: Cryptosporidium parvum Iowa II.
Assay [8] concerns the target HLA-B*40:01. The description is as above. The following applies: source organism: Cryptosporidium parvum Iowa II.
The target in another assay is HLA-A*26:01. The assay is described as above. The following applies: source organism: Cryptosporidium parvum Iowa II.
The target of a further assay is HLA-A*31:01. Kind of assay: IEDB peptide-MHC binding, purified MHC/direct/fluorescence; filed as Kd, often an IC50 or EC50 that approximates it; ≥ and ≤ were set here for values at or beyond the usual limits of such assays. The note with it: source organism: Mycobacterium tuberculosis.
The target of assay [9] is HLA-B*46:01. The description is as above. The note with it: source organism: Mycobacterium tuberculosis.
Another assay concerns the target HLA-B*48:01. Described as above. The following applies: source organism: Mycobacterium tuberculosis.
The target of another assay is HLA-B*58:01. The assay is described as above. The following applies: source organism: Mycobacterium tuberculosis.
For another assay, the target named is HLA-A*02:01. The description is as above. The note with it: source organism: Mycobacterium tuberculosis.
The target in assay [10] is HLA-B*51:01. The assay is described as above. The following applies: source organism: Mycobacterium tuberculosis.
The target in another assay is HLA-B*57:01. The assay is described as above. The note with it: source organism: Mycobacterium tuberculosis.
Assay [11] concerns the target HLA-B*18:01. The assay is described as above. The following applies: source organism: Mycobacterium tuberculosis.
Assay [12] concerns the target HLA-B*27:05. The description is as above. The note with it: source organism: Mycobacterium tuberculosis.
The next assay has as its target HLA-A*69:01. The description is as above. The note with it: source organism: Mycobacterium tuberculosis.
Assay [13] has as its target HLA-A*03:01. The assay is described as above. The note with it: source organism: Mycobacterium tuberculosis.
For a further assay, the target named is HLA-B*15:17. Described as above. The note with it: source organism: Mycobacterium tuberculosis.
The target in the next assay is HLA-B*38:01. The assay is described as above. The note with it: source organism: Mycobacterium tuberculosis str. Haarlem.
Assay [14] addresses HLA-A*11:01. The description is as above. The note with it: source organism: Mycobacterium tuberculosis.
The target in assay [15] is HLA-A*01:01. Described as above. The note with it: source organism: Mycobacterium tuberculosis.
In assay [16] the target is HLA-B*40:01. Described as above. The note with it: source organism: Mycobacterium tuberculosis.

The term Kd denotes the free concentration of one partner at which half of the binding sites on the other are occupied at equilibrium, for simple one-to-one binding.

For FTWQHNYYL, the Kd with HLA-C*12:03 was 335 nM; with HLA-A*66:01, at least 5 µM; with HLA-A*68:02 it was at most 1 nM; with HLA-B*44:02, at least 5 µM; with HLA-B*46:01 [1], at least 20 µM; with HLA-B*14:02 it was at least 20 µM. Also, the Kd is at least 5 µM with HLA-B*07:02; 41 nM in the assay with HLA-A*24:03; at least 5 µM with HLA-B*53:01; at least 5 µM with HLA-A*30:01; at least 20 µM in the assay with HLA-B*51:01 [2]; at least 5 µM in the assay with HLA-B*08:01. The Kd with HLA-B*18:01 [3] is at least 20 µM; with HLA-B*39:01, at least 20 µM; with HLA-A*23:01, 149 nM; with HLA-B*27:05 [4] it was at least 5 µM; with HLA-A*03:01 [5], at least 20 µM; in the assay with HLA-B*27:03, at least 20 µM. Moreover, the Kd is at least 5 µM with HLA-A*30:02; 50.9 nM with HLA-A*29:02; at least 20 µM in the assay with HLA-B*15:01 (source organism: Cryptosporidium parvum Iowa II); at least 5 µM with HLA-A*11:01 [6]; 463 nM with HLA-A*01:01 [7]; at least 5 µM with HLA-B*40:01 [8]. In addition, the Kd in the assay with HLA-A*26:01 was at least 20 µM.
For the sequence VPRENATAF, the Kd with HLA-A*31:01 was at least 20 µM; in the assay with HLA-B*46:01 [9] it was 15.9 µM; with HLA-B*48:01 it was at least 20 µM; in the assay with HLA-B*58:01, at least 20 µM; with HLA-A*02:01, at least 20 µM; in the assay with HLA-B*51:01 [10], at least 20 µM. The Kd in the assay with HLA-B*57:01 is at least 20 µM; with HLA-B*18:01 [11], 598 nM; with HLA-B*27:05 [12], at least 20 µM; with HLA-A*69:01 it was at least 20 µM; with HLA-A*03:01 [13] it was at least 20 µM; with HLA-B*15:17, at least 20 µM. Also, the Kd with HLA-B*38:01, with HLA-A*11:01 [14], with HLA-A*01:01 [15], with HLA-B*40:01 [16] and with HLA-B*15:01 (source organism: Mycobacterium tuberculosis variant bovis BCG str. Pasteur 1173P2) was at least 20 µM throughout.

The values above are taken from the Immune Epitope Database (IEDB).
